Reference: US20240399042A1

Target: SARS-CoV-2 (2019-nCoV) Spike S1-His Recombinant Protein (HPLC-verified), Sino Biological Catalog Number 40591-V08H (SARS-CoV-2) (UniProt P0DTC2)

Substance: Galanthus nivalis agglutinin (GNA) (from UniProt P30617 24-128)
- percent of S1 depleted at 15 minutes: > 90%
